Assay results published in paper PMC2759774 (Molecular microbiology, 2009).
Blank lines part the entries; values can stand above or below the binder they belong to.

Tests used:
[1] = target: T1, MinD (E. coli, UniProt P0AEZ3 1-270); assay: co-sedimentation
T1 sequence (looked up): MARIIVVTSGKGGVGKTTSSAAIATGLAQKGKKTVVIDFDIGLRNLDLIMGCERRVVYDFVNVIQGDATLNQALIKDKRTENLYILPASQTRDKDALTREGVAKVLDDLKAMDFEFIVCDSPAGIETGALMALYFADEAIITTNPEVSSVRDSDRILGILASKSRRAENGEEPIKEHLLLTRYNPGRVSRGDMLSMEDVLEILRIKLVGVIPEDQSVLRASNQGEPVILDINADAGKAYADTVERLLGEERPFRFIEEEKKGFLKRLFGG

[2] = target: T2, MinC^C/MinD complex (MalE-MinC^C with MinD on phospholipid vesicles) (E. coli, UniProt P18196 116-231; P0AEZ3 1-270); assay: co-sedimentation
T2 sequence (looked up) 1: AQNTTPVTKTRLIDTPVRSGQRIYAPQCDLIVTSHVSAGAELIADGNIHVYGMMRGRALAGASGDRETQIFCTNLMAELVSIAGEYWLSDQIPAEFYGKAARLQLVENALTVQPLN
T2 sequence (looked up) 2: T1 sequence (looked up)

binding result [1]: binds
B1: MalE-MinC^C (domain or fragment, E. coli, UniProt P18196 116-231, looked up)
chain: T2 sequence (looked up) 1

binding result [2]: binds
B2: WT FtsZ (natural protein, E. coli, UniProt P0A9A6 1-383, looked up)
chain: MFEPMELTNDAVIKVIGVGGGGGNAVEHMVRERIEGVEFFAVNTDAQALRKTAVGQTIQIGSGITKGLGAGANPEVGRNAADEDRDALRAALEGADMVFIAAGMGGGTGTGAAPVVAEVAKDLGILTVAVVTKPFNFEGKKRMAFAEQGITELSKHVDSLITIPNDKLLKVLGRGISLLDAFGAANDVLKGAVQGIAELITRPGLMNVDFADVRTVMSEMGYAMMGSGVASGEDRAEEAAEMAISSPLLEDIDLSGARGVLVNITAGFDLRLDEFETVGNTIRAFASDNATVVIGTSLDPDMNDELRVTVVATGIGMDKRPEITLVTNKQVQQPVMDRYQQHGMAPLTQEQKPVAKVVNDNAPQTAKEPDYLDIPAFLRKQAD
